Assays:
[1] = molecular target: T1, SARS-CoV-2 spike trimer (40589-V08H4) (SARS-CoV-2, UniProt P0DTC2 14-1213); test: ELISA, A450, nanobody at 10ug/mL, Spike Trimer coated at 2 ug/mL
T1 construct: extracellular domain

[2] = molecular target: SARS-CoV-2 Omicron BA.2 variant spike protein on pseudovirus (SARS-CoV-2); test: cell-based or functional assay
[3] = molecular target: SARS-CoV-2 Gamma variant spike protein on pseudovirus (SARS-CoV-2, UniProt P0DTC2 14-1273); test: cell-based or functional assay
[4] = molecular target: SARS-CoV-2 Omicron BA.1 variant spike protein on pseudovirus (SARS-CoV-2); test: cell-based or functional assay
[5] = molecular target: SARS-CoV-2 Omicron BA.4/BA.5 variant spike protein on pseudovirus (SARS-CoV-2); test: cell-based or functional assay
[6] = molecular target: SARS-CoV-2 Alpha variant spike protein on pseudovirus (SARS-CoV-2, UniProt P0DTC2 14-1273); test: cell-based or functional assay
[7] = molecular target: SARS-CoV-2 Lambda variant spike protein on pseudovirus (SARS-CoV-2, UniProt P0DTC2 14-1273); test: cell-based or functional assay

Row | Binder | ELISA (A450) at 10ug/mL [1] | further results
1 | NCI-CoV-S4A9 (VNAR) VNAR: ARVDQTPRSVTKETGESLTINCVLRDASYALGSTCWYRKKSGSTNEESISKGGRYVETVNSGSKSFSLRINDLTVEDGGTYRCGVQSRWGAVPKLCSNYAACGDGTAVTVN | 1.43 | 
2 | NCI-CoV-CGH3 (VHH) VHH: AVQLVESGGGLVQPGGSLRLSCAASGFTFSSYAMGWVRQAPGKGLEWISAINSGGDIRYYADSVKGRFTISRDNAKNTLYLQMNSLKPEDTAVYYCATDDEILSYGLGTSFDYWGQGTQVTVSS | 0.14 | 
3 | NCI-CoV-S3A10 (VNAR) VNAR: ARVDQTPRSVTKETGESLTINCVLRDASYALGSTCWYRKKSGSTNEESISKGGRYVETVNSGSKSFSLRINDLTVEDGGTYRCGRIQNTKAVLLPCVYAACGDGTVVTVN | 1.34 | 
4 | NCI-CoV-CL3H4 (VHH) VHH: DVQLVESGGGAVKPGGSLTLTCTVQEGSRNCVGWFRQGSGKDRQAVAMINGNGGTTNYDDRVKGRFQISRDGSLVHLRMNDVKLGDTDIYYCRQGQTYDCWGGTWTDSGWGQGTQVTVSS | 0.3 | 
5 | NCI-CoV-CG2G2 (VHH) VHH: AVQLVESGGGSVPPGGSLTLSCTVSDNIFRTYAVGWFRQAPEKRCQWIATLNADESTEYNVAVTGRFTISRDNSGRSVYLQMDNLNSEDTAIYYCASLARKWSCHDSWGRGTQVTVSS | 2.7 | 
6 | NCI-CoV-S2A9 (VNAR) VNAR: ARVDQTPRSVTKETGESLTINCVLRDASYALGRTCWYRKKSGSTNEESISKGGRYVETVNSGSKSFSLRINDLTVEDGGTYRCGVSTPWSCDYGPLCFYAACGDGTVVTVN | 0.53 | IC50 for neutralizing pseudovirus [2]: 2.25 µM; IC50 for neutralizing pseudovirus [3]: 1.79 µM; IC50 for neutralizing pseudovirus [4]: 2.25 µM; IC50 for neutralizing pseudovirus [5]: 3.73 µM; IC50 for neutralizing pseudovirus [6]: 1.82 µM; IC50 for neutralizing pseudovirus [7]: 4.57 µM
7 | NCI-CoV-S2G8 (VNAR) VNAR: ARVDQTPQTITKETGESLTINCVLRDSNCPLSNTYWYRKKSGSTNEESISKGGRYVETVNSGSKSFSLRINDLTVEDSGTYRCKVRTHWSICWEMGLEPNYDVYGGGTVVTVN | 0.61 | 
8 | NCI-CoV-CLA2 (VHH) VHH: QVQLVESGGGSVQPGGSLRLSCAVSGYTSSSYCFGWFRQAPGKDREGIIAMEPGNTYTAGAVKGRFTISRDNAKNMVYLQMNSLKPDDTAMYYCAASPYPGTWLNPDLFDTWGQGTQVTVSS | 0.66 | 
9 | NCI-CoV-CGF10 (VHH) VHH: AVQLVESGGGLVQPGGSLRLSCAASGFTFSSYGMHWVRQAPGKGLERVAGINWDGSNSYYTETVKGRFTISRDNAKNTAYLQMNSLKPEDTAMYYCRTLILDSDCDPGSTYRYAWGQGTQVTVSS | 1.2 | 
